Data published in patent US20230174628A1 (PEKING UNIVERSITY, published 2023).

B1: antigen-binding unit ABU-174 (antibody, V domains shown)
VH: QVQLQQWGAGLLKPSETLSLTCAVYGGSFSDYYWNWIRRPPGKGLEWIGEITHSGSTNYNPSLKSRVTISVDTSKNQFSLKLSSVTAADTAVYYCARGQGYGRVLLWFGEWGQGTLVTVSS
VL: EIVLTQSPATLSLSPGERATLSCRASQSVSTYLAWYQQKPGQAPRLLIYDASNRATGIPARFSGSGSGTDFTLTISSLEPEDFAVYYCQQRSNWITFGQGTRLEIK
B2: antigen-binding unit ABU-190 (antibody, V domains shown)
VH: EVQLVESGGGLIQPGGSLRLSCAASGITVSSNYMSWVRQAPGKGLEWVSVIYSGGSTDYADSVKGRFTISRDKSKNTLYLQMNSLRAEDTAVYYCARDLGEAGGMDVWGQGTTVTVSS
VL: AIQLTQSPSSLSASVGDRVTITCRASQGISSYLAWYQQKPGKAPKLLIYAASTLQSGVPSRFSGSGSGTDFTLTISSLQPEDFATYYCQQLNSYPPAFGGGTKVEIK

Molecular target: S protein (Spike) of the novel coronavirus SARS-CoV-2 (SARS-CoV-2, UniProt P0DTC2 14-1273)
Assay: cell-based or functional assay

| Binder | IC50, PRNT with SARS-CoV-2 euvirus on Vero E6 cells | IC50, neutralization of SARS-CoV-2 pseudovirus (Huh-7 cells, luciferase) |
| --- | --- | --- |
| B1 | 0.5 µg/mL | 0.026 µg/mL |
| B2 | 0.8 µg/mL | 0.039 µg/mL |
